In publication PMC4836915 (Journal of cystic fibrosis : official journal of the …, 2015) one finds Kd data, which are given here for 1 molecule.

The Kd is the constant that tells how readily two partners part at equilibrium.

The test deals with T1, recombinant Porin D (P. aeruginosa PAO1, UniProt P32722 24-443).
T1 sequence: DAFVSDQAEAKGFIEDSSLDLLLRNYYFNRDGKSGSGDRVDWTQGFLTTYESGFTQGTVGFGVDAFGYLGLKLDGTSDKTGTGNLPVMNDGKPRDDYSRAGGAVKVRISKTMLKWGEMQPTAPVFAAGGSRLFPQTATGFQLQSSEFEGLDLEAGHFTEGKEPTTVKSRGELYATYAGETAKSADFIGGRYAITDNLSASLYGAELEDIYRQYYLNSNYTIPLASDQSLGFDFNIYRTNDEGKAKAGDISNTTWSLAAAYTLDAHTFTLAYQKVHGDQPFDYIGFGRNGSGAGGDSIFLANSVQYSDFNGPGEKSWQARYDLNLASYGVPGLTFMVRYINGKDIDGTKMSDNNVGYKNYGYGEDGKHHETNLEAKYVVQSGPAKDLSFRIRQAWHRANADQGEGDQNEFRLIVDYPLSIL
The experiment in a line: BLI. (In general: Biolayer interferometry detects binding as a change in optical thickness at a sensor tip.)

B1: recombinant vitronectin aa 80-396 (domain or fragment, human, UniProt P04004 80-396, looked up)
chain: DGEEKNNATVHEQVGGPSLTSDLQAQSKGNPEQTPVLKPEEEAPAPEVGASKPEGIDSRPETLHPGRPQPPAEEELCSGKPFDAFTDLKNGSLFAFRGQYCYELDEKAVRPGYPKLIRDVWGIEGPIDAAFTRINCQGKTYLFKGSQYWRFEDGVLDPDYPRNISDGFDGIPDNVDAALALPAHSYSGRERVYFFKGKQYWEYQFQHQPSQEECEGSSLSAVFEHFAMMQRDSWEDIFELLFWGRTSAGTRQPQFISRDWHGVPGQVDAAMAGRIYISGMAPRPSLAKKQRFRHRNRKGYRSQRGHSRGRNQNSRRP
B1: the Kd turned out to be 3.6 nM.
